Results: patent publication US20250026813A1 (published 2025)

Target: SARS-CoV-2 spike protein receptor binding domain (isolated RBD) (SARS-CoV-2, UniProt P0DTC2 319-541)

Row | Binder | Kd [nM] | koff [s⁻¹] | kon [M⁻¹ s⁻¹]
1 | IMPI-059 (antibody, V domains shown) VH: EVQLVESGGGLIQPGGSLRLSCAASGFTVSSIYMSWVRQAPGKGLEWVSIIYSRGSTDYADSVKGRFTISRDISKNTLYLQMNSLRAEDTAVYYCARDGTMVRGVHAFDIWGQGTMVTVSS VL: DIQMTQSPPSLSASIGDRVTITCQASQDISNYLNWYQQKPGKAPKLLIYDASNLETGVPSRFSGSGSGTDFTLTISNLQPEDIVTYYCQQYDNLPSSFGQGTKLEIK | 0.646 | 0.00426 | 6.59e+06
2 | IMPI-055 (antibody, V domains shown) VH: QVQLVQSGAEVKKPGASVKVSCKASGYTFTSYDINWVRQATGQGLEWMGWMNPNSGNTGYAQKFQGRVTMTRDTSINTAYMELSSLRSEDTAVYFCARGGRYCSDVTCYSGEPFDYWGQGTLVTVSS VL: EIMLTQSPDFQSVTPKEKVTITCRASQSIGSSLHWYQQKPDQSPKLLIKFASQSISGVPSRFSGSGSGTDFTLTINSLEAEDAAAYYCHQSSSLPHTFGPGTKVEIK | 0.959 | 0.00264 | 2.75e+06
3 | IMPI-054 (antibody, V domains shown) VH: EVQLVESGGGLIQPGGSLRLSCAASGLTVSSNYMSWVRQAPGKGLEWVSIIYSGGSTYYADSVKGRFTISRDNSKNTLYLQMNSLRAEDTAVYYCARLGGYYYYGMDVWGQGTTVTVSS VL: DIQMTQSPSSLSASVGERVTITCQASQDIRNYLNWYQKKPGKAPKLLIYDSSNLETGVPSRFSGSGSGTDFTFTISSLQPEDIATYYCQQYDNLPITFGQGTRLEIK | 1.11 | 0.000627 | 564000
4 | IMPI-042 (antibody, V domains shown) VH: EVQLVESGGGLIQPGGSLRLSCAASGLTVSSNYMSWVRQAPGKGLEWVSIIYSGGSTYYADSVKGRFTISRDNSKNTLYLQMNSLRAEDTAVYYCARLGGYYYYGMDVWGQGTTVTVSS VL: DIQMTQSPSSLSASVGERVTITCQASQDIRNYLNWYQKKPGKAPKLLIYDSSNLETGVPSRFSGGGSGTDFTFTISSLQPEDIATYYCQQYDNLPITFGQGTRLEIK | 1.15 | 0.000617 | 536000
5 | IMPI-006 (antibody, V domains shown) VH: QLQLQESGPGLVKPSETLSLTCTVSGGSISNSNYYWGWIRQPPGKGLEWIGSIYYSGRTYYNPSLKSRVTISVDTSKNQFSLKLSSVTAADTAVYYCARMGLLWFGEFYGMDVWGQGTTVTVSS VL: DIQMTQSPSSLSASVGDRVTITCRASQGISSWLAWYQQKPEKAPKSLIYDASSLQRGVPSRFSGSGSGTDFTLTISSLQPEDFASYYCQQYNSYPLTFGGGTRVEIK | 0.88 | 8.19 | 9.3e+09
6 | IMPI-038 (antibody, V domains shown) VH: QVQLVESGGGVVQPGRSLRLSCAASGFTFSSYGMHWVRQAPGKGLEWVAVISYDGSDKYYADSVKGRFTISRDNSKNTLYLQMNSLRAEDTAVYYCAKTVAGYYYYYYGMDVWGQGTTVTVSS VL: DIQMTQSPSSVSASVGDRVTVTCRASQDISSWLAWFQQKPGKAPKFLIYDASNLENGVPSRFSGSGSGTDFTLTISSLQPEDFATYYCQQAKSFPWTFGQGTKVEIN | 2.92 |  | 
7 | IMPI-017 (antibody, V domains shown) VH: EVQLVESGGGLIQPGGSLRLSCAAAGLTVSSNYMNWVRQVPGKGLEWVSVIYSGGSTYYADSVKGRFTISRDNSKNTLYLQMNSLRAEDTAVYYCARDLGTLGMDVWGQGTTVTVSS VL: DIQLTQSPSFLSASVGDRVTITCWASQGISTYLAWYQQKPGKAPKLLIYAASTLQSGVPSRFSGSGSGTEFTLTISSLQPEDFATYYCQQLNSYLPTFGQGTKVEIK | 1.87 | 0.000976 | 522000
8 | IMPI-037 (antibody, V domains shown) VH: not shown VL: DIQLTQSPSFLSASVGDRVTITCWASQGINSYLAWYQQKPGKAPKLLIYAASTLQSGVPSRFSGSGSGTEFTLTISSLQPEDFTTYYCQQFNDYPRTFGPGTKVEIK | 9.28 | 0.0232 | 2.5e+06
9 | IMPI-029 (antibody, V domains shown) VH: EVQLVESGGGLIQPGGSLRLSCAASGVTVSSNYMNWVRQAPGKGLEWVSVIYSGGSTYYADSVKGRFTISRDNSKNTLFLQMNSLRAEDSAVYYCARDLGPYGVDVWGQGTTVTVSS VL: DIQLTQSPSFLSASVGDRVTITCWASQGISSYLAWYQQKPGKAPKLLIYAASTLQSGVPSRFSGSGSGTEFTLTISSLQPEDFATYYCQELNSYPLTFGQGTRLEIK [IMPI-029, listing 1 of 2 here] | 0.195 | 0.000157 | 808000
10 | IMPI-047 (antibody, V domains shown) VH: EVQLVESGGGLIQPGGSLRLSCAASGFTVSSNYMNWVRQAPGKGLEWVSVIYSGGSTYYADSVKGRFTISRDNSKNTLYLQMNSLRTEDTAVYYCARDLVAYGMDVWGQGTTVTVSS VL: DIQLTQSPSFLSASVGDRVTITCWASQGISSYLAWYQQKPGKAPKVLIYAASTLQSGVPSRFSGSGSGTEFTLTISSLQPEDFATYYCQLLNSNPLTFGGGTKVEIK | 2.38 | 0.000878 | 368000
11 | IMPI-056 (antibody, V domains shown) VH: EVQLVESGGGLIQPGGSLRLSCAASGLTVSSNYMNWVRQAPGKKLEWVSVIYSGGSTFYADSVRGRFTISRDNSKNTLFLQMNSLRAEDSAVYYCARDLGPYGVDVWGQGTTVTVSS VL: DIQLTQSPSFLSASVGDRVTITCWASQGISSYLAWYQQKPGKAPKLLIYAASTLQSGVPSRFSGSGSGTEFTLTISSLQPEDFATYYCQQLNSYPLTFGQGTRLEIK | 0.44 |  | 
12 | IMPI-060 (antibody, V domains shown) VH: EVQLVESGGGLIQPGGSLRLSCAASGVTVSSNYMSWVRQAPGKGLEWVSVIYSGGSTFYADSVKGRFTISRDNSKNTLYLQMNSLRAEDTAVYYCARDLSYYGMDVWGQGTTVTVSS VL: DIQLTQSPSFLSASVGDRVTITCWASQGISSYLAWYQQKPGKAPKLLIYAASTLQSGVPSKFSGSGSGTEFTLTISSLQPEDFATYYCQQLNSYPSSFGQGTKLEIK | 59.2 | 0.0277 | 469000
13 | IMPI-021 (antibody, V domains shown) VH: EVQLVESGGGLIQPGGSLRLSCAASGVTVSSNYMSWVRQAPGKGLEWVSVIYSGGSTFYADSVKGRFTISRDNSKNTLYLQMNSLRAEDTAVYYCARDLSYYGMDVWGQGTTVTVSS VL: DIQLTQSPSFLSASVGDRVTITCWASQGISSYLAWYQQKPGKAPKLLIYAASTLQSGVPSKFSGSGSGTEFTLTISSLQPEDFATYYCQQLNSYPCSFGQGTKLEIK | 8.08 | 0.00443 | 548000
14 | IMPI-005 (antibody, V domains shown) VH: EVQLVESGGGLIQPGGSLRLSCAASGFTVSSNYMNWVRQAPGKGLEWVSVIYSGGSTYYADSVKGRFTISRDNSKNTLFLQMNSLRAEDSAVYYCARDLGPYGVDVWGQGTTVTVSS VL: DIQLTQSPSFLSASVGDRVTITCWASQGISSYLAWYQQKPGKAPKLLIYAASTLQSGVPSRFSGSGSGTEFTLTISSLQPEDFATYYCQELNSYPLTFGQGTRLEIK | 3.09 | 0.0071 | 2.3e+06
15 | IMPI-068 (antibody, V domains shown) VH: QVQLVESGGDVVQPGRSLRLSCAASGFTFSRYGMHWVRQAPGKGLEWVAVISYDGSDKYYADSVKGRFTISRDNSKNTLYLQMNSLRAEDTAVYYCAKQLPLYYYYYGMDVWGQGTTVTVSS VL: AIQLTQSPSSLSASVGDRVTITCRASQGISSALAWYQQKPGKAPNLLIYDASSLESGVPSRFSGSGSGTDFTLTISSLQPEDFATYYCQQFNIYPHTFGPGTKVDIK | 40.5 |  | 
16 | IMPI-027 (antibody, V domains shown) VH: QVQLQESGPGLVKPSQTLSLTCTVSGGSISSYGYYWNWIRQHPGKGLEWIGYIYYSGSTYYNPSLKSRVTISVDTSKNQLSLRLNSVSAADTAVYYCARDFGGNSNYFDYWGQGTLVTVSS VL: AIQLTQSPSSLSASVGDRVTITCRTSQGISSALAWYQQKPGKAPKLLIYDASSLESGVPSRFSGSGSGTDFTLTISSLQPEDFATYYCQQFNSYPLTFGGGTKVEIK | 4.06 | 26.3 | 6.48e+09
17 | IMPI-024 (antibody, V domains shown) VH: EVQLVQSGAEVKKPGESLKISCKGSGYSFTSYWIGWVRQMPGKGLEWMGIIYPGDSDTRYSPSFQGQVTISADKSISTAYLQWSSLKASDTAMYYCVRSYNWNYFDYWGQGTLVTVSS VL: AIQLTQSPSSLSASVGDRVTITCRASQGISSGLAWYQQKAGKAPKLLIYDVSSLESGVPSRFSGSGSGTDFTLTISSLQPEDFATYYCQQFLSYPWTFGQGTKVEIK [IMPI-024, listing 1 of 2 here] | 0.633 | 0.00134 | 2.12e+06
18 | IMPI-033 (antibody, V domains shown) VH: QVQLQESGPGLVKPSQTLSLTCTVSGGSISSYGYYWSWIRQHPGKGLEWIGYIYYSGSTYYNPSLKSRVTMSVDTSKNQLSLRLNSVSAADTAVYYCARDFGGNSNYFDYWGQGTLVTVSS VL: AIQLTQSPSSLSASVGDRVTITCRASQGISSALAWYQQKPGKAPNLLIYDASSLESGVPSRFSGSGSGTDFTLTISSLQPEDFATYYCQQFNSSPLTFGGGTKVEIK | 3.37 | 0.00741 | 2.2e+06

Target: T1, S2 subunit of the SARS-CoV-2 spike protein (Sino Biological 40590-V08B), His tag (SARS-CoV-2, UniProt P0DTC2 686-1213)
T1 construct: domain: S2 subunit

Row | Binder | HTRF deltaF [deltaF]
19 | IMPI-029 (antibody, V domains shown) VH: EVQLVESGGGLIQPGGSLRLSCAASGVTVSSNYMNWVRQAPGKGLEWVSVIYSGGSTYYADSVKGRFTISRDNSKNTLFLQMNSLRAEDSAVYYCARDLGPYGVDVWGQGTTVTVSS VL: DIQLTQSPSFLSASVGDRVTITCWASQGISSYLAWYQQKPGKAPKLLIYAASTLQSGVPSRFSGSGSGTEFTLTISSLQPEDFATYYCQELNSYPLTFGQGTRLEIK [IMPI-029, listing 2 of 2 here] | 4.1
20 | IMPI-024 (antibody, V domains shown) VH: EVQLVQSGAEVKKPGESLKISCKGSGYSFTSYWIGWVRQMPGKGLEWMGIIYPGDSDTRYSPSFQGQVTISADKSISTAYLQWSSLKASDTAMYYCVRSYNWNYFDYWGQGTLVTVSS VL: AIQLTQSPSSLSASVGDRVTITCRASQGISSGLAWYQQKAGKAPKLLIYDVSSLESGVPSRFSGSGSGTDFTLTISSLQPEDFATYYCQQFLSYPWTFGQGTKVEIK [IMPI-024, listing 2 of 2 here] | -15.4
